From US20190016771A1 (Hoffmann-La Roche, published 2019)

Tests used:
[1] = molecular target: T1, human fibroblast activation protein (FAP) on the cell surface (human, UniProt Q12884 1-760); experiment: flow cytometry on 3T3-huFAP clone 39 cells, detection with FITC-labelled anti-huIgG kappa mouse IgG (clone G18-145), MFI baseline corrected
T1 construct: also called huFAP; NIH/3T3-huFAP clone 39 cells
T1 sequence: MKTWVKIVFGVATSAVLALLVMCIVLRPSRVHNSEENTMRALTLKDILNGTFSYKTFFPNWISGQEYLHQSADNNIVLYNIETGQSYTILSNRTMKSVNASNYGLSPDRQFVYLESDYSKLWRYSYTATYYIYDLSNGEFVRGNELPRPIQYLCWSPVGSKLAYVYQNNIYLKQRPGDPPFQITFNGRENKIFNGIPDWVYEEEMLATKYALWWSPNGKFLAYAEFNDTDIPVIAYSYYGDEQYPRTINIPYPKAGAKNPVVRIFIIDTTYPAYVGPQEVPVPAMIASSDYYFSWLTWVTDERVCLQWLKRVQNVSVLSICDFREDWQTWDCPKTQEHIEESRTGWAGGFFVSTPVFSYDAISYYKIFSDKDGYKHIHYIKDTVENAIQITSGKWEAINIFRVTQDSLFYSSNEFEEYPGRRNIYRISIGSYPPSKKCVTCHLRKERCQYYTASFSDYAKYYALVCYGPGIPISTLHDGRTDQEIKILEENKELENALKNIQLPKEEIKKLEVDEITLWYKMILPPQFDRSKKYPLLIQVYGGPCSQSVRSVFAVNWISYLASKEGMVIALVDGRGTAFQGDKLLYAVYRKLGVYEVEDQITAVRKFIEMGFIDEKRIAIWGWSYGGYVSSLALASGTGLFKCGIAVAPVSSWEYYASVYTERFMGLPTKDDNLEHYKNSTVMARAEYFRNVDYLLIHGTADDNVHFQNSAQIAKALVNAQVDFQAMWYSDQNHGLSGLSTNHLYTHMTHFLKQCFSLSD
Experimental: For binding assays on FAP expressing cells, the NIH/3T3-huFAP clone 39 cell line was used. To generate this cell line, NIH/3T3 cells were transfected with human FAP (NIH/3T3-huFAP clone 39). The cells were generated by transfection of mouse embryonic fibroblast NIH/3T3 cells (ATCC CRL-1658) with the expression pETR4921 plasmid encoding human FAP under a CMV promoter. Cells were maintained in the presence of 1.5 μg/mL puromycin (InvivoGen, Cat.-No.: ant-pr-5). 0.1×10⁶ of FAP expressing tumor cells were added to each well of a round-bottom suspension cell 96-well plates (Greiner bio-one, cellstar, Cat.-No. 650185). Cells were washed once with 200 μL/well 4° C. cold FACS buffer and resuspended in 50 μL/well of 4° C. cold FACS buffer containing different concentrations of titrated FAP-targeted or DP47-targeted CMP-trimeric 4-1BB ligand-containing antigen binding molecule. Resuspended cells were incubated for 2 hour at 4° C. […] Cells were washed twice with 200 μL/well cold FACS buffer and resuspended in 100 μL/well FACS buffer containing 0.2 μg/mL DAPI (Santa Cruz Biotec, Cat. No. Sc-3598) and acquired the same day using a 5-laser LSR-Fortessa (BD Bioscience with DIVA software).

[2] = molecular target: T2, human 4-1BB (CD137) on the cell surface (human, UniProt Q07011 24-255); experiment: flow cytometry on activated human CD8+ T cells (PBMC), detection with PE-labelled anti-human IgG F(ab')2-specific goat F(ab')2, median fluorescence, baseline corrected
T2 construct: whole, on cells; also called HeLa-huCD137-NF-kB-luciferase reporter cells
Experimental: Plates were centrifuged 4 minutes with 400×g and at 4° C. and supernatant was discarded. If cells were fixed before acquisition by flow cytometry they were washed once with 200 μL/well DPBS and then stained for 30 min at 4° C. with […] DPBS containing 1:1000 diluted LIVE/DEAD Fixable Aqua Dead Cell Stain (Life technologies, Molecular Probes, Cat-No.: L34957). If cells were acquired the same day and DAPI was used to discriminate dead cells this staining step was skipped. Afterwards cells were washed once with 200 μL cold FACS buffer (DPBS supplied with 2% (v/v) FBS, 5 mM EDTA pH8 (Amresco, Cat. No. E177) and 7.5 mM sodium azide (Sigma-Aldrich S2002)). Next, 50 μL/well of 4° C. cold FACS buffer containing FAP-targeted CMP trimeric 4-1BB ligand-containing antigen binding molecule, DP47-targeted CMP trimeric 4-1BB ligand-containing antigen binding molecule or not-specific binding huIgG1 P329G LALA control antibody were added and cells were incubated for 120 minutes at 4° C. Cells were washed four times with 200 μL/well 4° C. FACS buffer. […]

T2 sequence (Q07011 24-255): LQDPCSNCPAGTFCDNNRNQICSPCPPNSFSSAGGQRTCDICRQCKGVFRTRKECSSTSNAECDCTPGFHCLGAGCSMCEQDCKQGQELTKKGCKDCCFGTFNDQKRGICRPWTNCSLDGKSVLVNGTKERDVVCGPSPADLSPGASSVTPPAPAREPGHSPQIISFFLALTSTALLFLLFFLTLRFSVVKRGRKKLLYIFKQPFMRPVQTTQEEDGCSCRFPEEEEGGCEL

B1: FAP(28H1)-targeted hu CMP (CMPtd) trimeric human 4-1BBL(71-254)-containing antigen binding molecule (other)
chain: EVQLLESGGGLVQPGGSLRLSCAASGFTFSSHAMSWVRQAPGKGLEWVSAIWASGEQYYADSVKGRFTISRDNSKNTLYLQMNSLRAEDTAVYYCAKGWLGNFDYWGQGTLVTVSSASTKGPSVFPLAPSSKSTSGGTAALGCLVKDYFPEPVTVSWNSGALTSGVHTFPAVLQSSGLYSLSSVVTVPSSSLGTQTYICNVNHKPSNTKVDKKVEPKSCDGGGGSGGGGSEEDPCACESLVKFQAKVEGLLQALTRKLEAVSKRLAILENTVVSGGGGSGGGGSGGGGSGGGGSREGPELSPDDPAGLLDLRQGMFAQLVAQNVLLIDGPLSWYSDPGLAGVSLTGGLSYKEDTKELVVAKAGVYYVFFQLELRRVVAGEGSGSVSLALHLQPLRSAAGAAALALTVDLPPASSEARNSAFGFQGRLLHLSAGQRLGVHLHTEARARHAWQLTQGATVLGLFRVTPEIPAGLPSPRSE
light: EIVLTQSPGTLSLSPGERATLSCRASQSVSRSYLAWYQQKPGQAPRLLIIGASTRATGIPDRFSGSGSGTDFTLTISRLEPEDFAVYYCQQGQVIPPTFGQGTKVEIKRTVAAPSVFIFPPSDEQLKSGTASVVCLLNNFYPREAKVQWKVDNALQSGNSQESVTEQDSKDSTYSLSSTLTLSKADYEKHKVYACEVTHQGLSSPVTKSFNRGEC
notes: Three fusion chains are covalently linked by disulfides of the huCMP trimerization domain; each pairs with one light chain to form a Fab; also called trimeric FAP-huCMP-4-1BBL
With B1 the “EC50 (read off the curve)” value [1] was roughly 0.7 nM and the “EC50 (read off the curve)” value [2] was roughly 0.6 nM.
